Key:
[1] = target: T1, Flag-mCherry-ColKhan-Cys-6His (Photorhabdus khanii); assay: EIA 8 plex n° 1: colicin coated at 100 nM, Im-RLuc8 at 100 nM, luminescence; light bar alone, dark bar with the 7 other unfused Im proteins
[2] = target: Flag-mCherry-ColSyr-Cys-6His (Pseudomonas syringae B728A); assay: as above
[3] = target: T2, Flag-mCherry-ColAP41-Cys-6His (Pseudomonas aeruginosa AP41); assay: as above
[4] = target: T3, Flag-mCherry-ColErw-Cys-6His (Pectobacterium carotovorum); assay: EIA 8 plex n° 2: colicin coated at 100 nM, Im-RLuc8 at 100 nM, luminescence; light bar alone, dark bar with the 7 other unfused Im proteins
[5] = target: T4, Flag-mCherry-ColLeaf-Cys-6His (Pseudomonas sp Leaf83); assay: as above
Flag-EmGFP-ColE2-6His [6] = target: T5, Flag-EmGFP-ColE2-6His (Escherichia coli); assay: EIA 4 plex: colicin coated at 100 nM, Im-RLuc8 alone at 100 nM, luciferase signal (FIG. 1, light grey bars)
T5 construct: Coated on the plate or sprayed on the membrane; also called Colicin E2

Flag-EmGFP-ColE2-6His [7] = target: T5, Flag-EmGFP-ColE2-6His; assay: kinetics, literature value (Li W. et al., 2004) printed above the bar pair; unit from the legend paragraph 10
Flag-EmGFP-ColE7-6His [8] = target: T6, Flag-EmGFP-ColE7-6His (Escherichia coli); assay: as above
T6 construct: also called Colicin E7

Flag-mCherry-ColE8-6His [9] = target: T7, Flag-mCherry-ColE8-6His (Escherichia coli); assay: as above
T7 construct: also called Colicin E8

Flag-EmGFP-ColE2-6His [10] = target: T5, Flag-EmGFP-ColE2-6His; assay: EIA 8 plex n° 2: colicin coated at 100 nM, Im-RLuc8 alone at 100 nM, luciferase signal (FIG. 4, light grey bars)
Flag-EmGFP-ColE2-6His [11] = target: T5, Flag-EmGFP-ColE2-6His; assay: EIA 8 plex n° 1: colicin coated at 100 nM, Im-RLuc8 alone at 100 nM, luciferase signal (FIG. 3, light grey bars)
[12] = target: T3, Flag-mCherry-ColErw-Cys-6His; assay: EIA 8 plex n° 1: colicin coated at 100 nM, Im-RLuc8 at 100 nM, luminescence; light bar alone, dark bar with the 7 other unfused Im proteins
Flag-EmGFP-ColE7-6His [13] = target: T6, Flag-EmGFP-ColE7-6His; assay: EIA 4 plex: colicin coated at 100 nM, Im-RLuc8 alone at 100 nM, luciferase signal (FIG. 1, light grey bars)
Flag-mCherry-ColE9-6His [14] = target: T8, Flag-mCherry-ColE9-6His (Escherichia coli); assay: kinetics, literature value (Li W. et al., 2004) printed above the bar pair; unit from the legend paragraph 10
T8 construct: also called Colicin E9

Flag-EmGFP-ColE7-6His [15] = target: T6, Flag-EmGFP-ColE7-6His; assay: EIA 8 plex n° 1: colicin coated at 100 nM, Im-RLuc8 alone at 100 nM, luciferase signal (FIG. 3, light grey bars)
Flag-mCherry-ColE8-6His [16] = target: T7, Flag-mCherry-ColE8-6His; assay: EIA: colicin coated at 100 nM, Im-RLuc8 at 100 nM, luminescence; light bar alone, dark bar with the 3 other unfused Im proteins
[17] = target: T2, Flag-mCherry-ColAP41-Cys-6His; assay: EIA 8 plex n° 2: colicin coated at 100 nM, Im-RLuc8 at 100 nM, luminescence; light bar alone, dark bar with the 7 other unfused Im proteins
Flag-mCherry-ColE8-6His [18] = target: T7, Flag-mCherry-ColE8-6His; assay: EIA 4 plex: colicin coated at 100 nM, Im-RLuc8 alone at 100 nM, luciferase signal (FIG. 1, light grey bars)
Flag-mCherry-ColE8-6His [19] = target: T7, Flag-mCherry-ColE8-6His; assay: EIA 8 plex n° 2: colicin coated at 100 nM, Im-RLuc8 alone at 100 nM, luciferase signal (FIG. 4, light grey bars)
[20] = target: T4, Flag-mCherry-ColLeaf-Cys-6His; assay: EIA 8 plex n° 2: colicin coated at 100 nM, Im-RLuc8 alone at 100 nM, luciferase signal
Flag-mCherry-ColE9-6His [21] = target: T8, Flag-mCherry-ColE9-6His; assay: EIA 8 plex n° 1: colicin coated at 100 nM, Im-RLuc8 alone at 100 nM, luciferase signal
[22] = target: T3, Flag-mCherry-ColErw-Cys-6His; assay: as above
Flag-EmGFP-ColE7-6His [23] = target: T6, Flag-EmGFP-ColE7-6His; assay: as above
Flag-mCherry-ColE8-6His [24] = target: T7, Flag-mCherry-ColE8-6His; assay: EIA 8 plex n° 1: colicin coated at 100 nM, Im-RLuc8 alone at 100 nM, luciferase signal (FIG. 3, light grey bars)
Flag-EmGFP-ColE2-6His [25] = target: T5, Flag-EmGFP-ColE2-6His; assay: EIA 8 plex n° 1: colicin coated at 100 nM, Im-RLuc8 at 100 nM, luminescence; light bar alone, dark bar with the 7 other unfused Im proteins
Flag-mCherry-ColE9-6His [26] = target: T8, Flag-mCherry-ColE9-6His; assay: as above
Flag-EmGFP-ColE7-6His [27] = target: T6, Flag-EmGFP-ColE7-6His; assay: as above
Flag-mCherry-ColE8-6His [28] = target: T7, Flag-mCherry-ColE8-6His; assay: as above
[29] = target: T1, Flag-mCherry-ColKhan-Cys-6His; assay: EIA 8 plex n° 2: colicin coated at 100 nM, Im-RLuc8 at 100 nM, luminescence; light bar alone, dark bar with the 7 other unfused Im proteins
[30] = target: T2, Flag-mCherry-ColAP41-Cys-6His; assay: EIA 8 plex n° 2: colicin coated at 100 nM, Im-RLuc8 alone at 100 nM, luciferase signal (FIG. 4, light grey bars)
[31] = target: T2, Flag-mCherry-ColAP41-Cys-6His; assay: EIA 8 plex n° 1: colicin coated at 100 nM, Im-RLuc8 alone at 100 nM, luciferase signal (FIG. 3, light grey bars)

B1: Myc-RLuc8-Im2-6His (other)
chain: MGGEQKLISEEDLGGSASKVYDPEQRKRMITGPQWWARCKQMNVLDSFINYYDSEKHAENAVIFLHGNATSSYLWRHVVPHIEPVARCIIPDLIGMGKSGKSGNGSYRLLDHYKYLTAWFELLNLPKKIIFVGHDWGAALAFHYAYEHQDRIKAIVHMESVVDVIESWDEWPDIEEDIALIKSEEGEKMVLENNFFVETVLPSKIMRKLEPEEFAAYLEPFKEKGEVRRPTLSWPREIPLVKGGKPDVVQIVRNYNAYLRASDDLPKLFIESDPGFFSNAIVEGAKKFPNTEFVKVKGLHFLQEDAPDEMGKYIKSFVERVLKNEQKLELKHSISDYTEAEFLEFVKKICRAEGATEEDDNKLVREFERLTEHPDGSDLIYYPRDDREDSPEGIVKEIKEWRAANGKSGFKQGLEGGGSHHHHHH
notes: Immunity protein fused to the luciferase RLuc8 as reporter; added in solution; also called Im2-RLuc8; Im2-Rluc8
binding result [1]: no binding (tested: 100 nM)
binding result [2]: no binding (tested: 100 nM)
binding result [3]: no binding (tested: 100 nM)
binding result [4]: no binding (tested: 100 nM)
binding result [5]: no binding (tested: 100 nM)
RLU (Flag-EmGFP-ColE2-6His [6]): > 400000 RLU
Kd (Flag-EmGFP-ColE2-6His [7]): 3.9e-06 nM
Kd (Flag-EmGFP-ColE7-6His [8]): 0.36 nM
Kd (Flag-mCherry-ColE8-6His [9]): 18 nM
RLU (Flag-EmGFP-ColE2-6His [10]): > 2.4e+06 RLU
RLU (Flag-EmGFP-ColE2-6His [11]): > 2e+06 RLU

B2: Myc-RLuc8-Im7-6His (other)
chain: MGGEQKLISEEDLGGSASKVYDPEQRKRMITGPQWWARCKQMNVLDSFINYYDSEKHAENAVIFLHGNATSSYLWRHVVPHIEPVARCIIPDLIGMGKSGKSGNGSYRLLDHYKYLTAWFELLNLPKKIIFVGHDWGAALAFHYAYEHQDRIKAIVHMESVVDVIESWDEWPDIEEDIALIKSEEGEKMVLENNFFVETVLPSKIMRKLEPEEFAAYLEPFKEKGEVRRPTLSWPREIPLVKGGKPDVVQIVRNYNAYLRASDDLPKLFIESDPGFFSNAIVEGAKKFPNTEFVKVKGLHFLQEDAPDEMGKYIKSFVERVLKNEQKLELKNSISDYTEAEFVQLLKEIEKENVAATDDVLDVLLEHFVKITEHPDGTDLIYYPSDNRDDSPEGIVKEIKEWRAANGKPGFKQGLEGGGSHHHHHH
notes: Immunity protein fused to the luciferase RLuc8 as reporter; added in solution; also called Im7-RLuc8; Im7-Rluc8
binding result [1]: no binding (tested: 100 nM)
binding result [2]: no binding (tested: 100 nM)
binding result [12]: no binding (tested: 100 nM)
binding result [3]: no binding (tested: 100 nM)
RLU (Flag-EmGFP-ColE7-6His [13]): > 400000 RLU
Kd (Flag-EmGFP-ColE2-6His [7]): 14 nM
Kd (Flag-mCherry-ColE9-6His [14]): ~100000 nM
RLU (Flag-EmGFP-ColE7-6His [15]): > 2e+06 RLU
binding result (Flag-mCherry-ColE8-6His [16]): binds

B3: Myc-RLuc8-Im8-6His (other)
chain: MGGEQKLISEEDLGGSASKVYDPEQRKRMITGPQWWARCKQMNVLDSFINYYDSEKHAENAVIFLHGNATSSYLWRHVVPHIEPVARCIIPDLIGMGKSGKSGNGSYRLLDHYKYLTAWFELLNLPKKIIFVGHDWGAALAFHYAYEHQDRIKAIVHMESVVDVIESWDEWPDIEEDIALIKSEEGEKMVLENNFFVETVLPSKIMRKLEPEEFAAYLEPFKEKGEVRRPTLSWPREIPLVKGGKPDVVQIVRNYNAYLRASDDLPKLFIESDPGFFSNAIVEGAKKFPNTEFVKVKGLHFLQEDAPDEMGKYIKSFVERVLKNEQKLELKNSISDYTETEFKKIIEDIINCEGDEKKQDDNLEHFISVTEHPSGSDLIYYPEGNNDGSPEAVIKEIKEWRAANGKSGFKQGLEGGGSHHHHHH
notes: Immunity protein fused to the luciferase RLuc8 as reporter; added in solution; also called Im8-RLuc8; Im8-Rluc8
binding result [1]: no binding (tested: 100 nM)
binding result [2]: no binding (tested: 100 nM)
binding result [17]: no binding (tested: 100 nM)
RLU (Flag-mCherry-ColE8-6His [18]): > 400000 RLU
Kd (Flag-EmGFP-ColE2-6His [7]): 38 nM
Kd (Flag-mCherry-ColE9-6His [14]): 500 nM
Kd (Flag-EmGFP-ColE7-6His [8]): 0.37 nM
RLU (Flag-mCherry-ColE8-6His [19]): > 2.4e+06 RLU
RLU [20]: > 100000 RLU
RLU (Flag-mCherry-ColE9-6His [21]): > 100000 RLU
RLU [22]: > 100000 RLU
RLU (Flag-EmGFP-ColE7-6His [23]): > 100000 RLU
RLU (Flag-mCherry-ColE8-6His [24]): > 2e+06 RLU

B4: Myc-RLuc8-ImAP41-Avitag-6His (other)
chain: MGGEQKLISEEDLGGSASKVYDPEQRKRMITGPQWWARCKQMNVLDSFINYYDSEKHAENAVIFLHGNATSSYLWRHVVPHIEPVARCIIPDLIGMGKSGKSGNGSYRLLDHYKYLTAWFELLNLPKKIIFVGHDWGAALAFHYAYEHQDRIKAIVHMESVVDVIESWDEWPDIEEDIALIKSEEGEKMVLENNFFVETVLPSKIMRKLEPEEFAAYLEPFKEKGEVRRPTLSWPREIPLVKGGKPDVVQIVRNYNAYLRASDDLPKLFIESDPGFFSNAIVEGAKKFPNTEFVKVKGLHFLQEDAPDEMGKYIKSFVERVLKNEQKLPGGSDIKNNLSDYTESEFLEIIEEFFKNKSGLKGSELEKRMDKLVKHFEEVTSHPRKSGVIFHPKPGFETPEGIVKEVKEWRAANGLPGFKAGLEGGSGGSGLNDIFEAQKIEWHELEGGGSHHHHHH
notes: Immunity protein fused to the luciferase RLuc8 as reporter; added in solution; also called ImAP41-Rluc8
binding result (Flag-EmGFP-ColE2-6His [25]): no binding (tested: 100 nM)
binding result (Flag-mCherry-ColE9-6His [26]): no binding (tested: 100 nM)
binding result [2]: no binding (tested: 100 nM)
binding result [12]: no binding (tested: 100 nM)
binding result (Flag-EmGFP-ColE7-6His [27]): no binding (tested: 100 nM)
binding result (Flag-mCherry-ColE8-6His [28]): no binding (tested: 100 nM)
binding result [29]: no binding (tested: 100 nM)
binding result [5]: no binding (tested: 100 nM)
RLU [30]: > 2.4e+06 RLU
RLU [31]: > 2e+06 RLU

— US20210373004A1 (BIOASTER, published 2021)
